Data published in patent US20170209529A1 (BRIGHAM AND WOMEN S HOSPITAL, published 2017).
Values joined by “and” are separate entries in the source; they are usually repeats but may differ in a detail not shown here. Equal values may be shown once. Bridge positions count the residues as written; N and C are the ends.

Columns and labels:
[1] = target: T1, soluble human FcRn (shFcRn) (human, UniProt P55899 24-297; P61769 21-119); assay: SPR (Biacore), immobilized shFcRn, pH 6, steady-state fit
T1 construct: For crystallography it was expressed in CHOK1SV cells and deglycosylated with PNGaseF; biotinylated for phage selection; also called hFcRn/β2m; FcRn-biotin

[2] = target: T1, soluble human FcRn (shFcRn); assay: SPR (Biacore), immobilized shFcRn, pH 7.4
[3] = target: T1, soluble human FcRn (shFcRn); assay: SPR (Biacore), Kd pH 7.4 divided by Kd pH 6.0
[4] = target: T1, soluble human FcRn (shFcRn); assay: SPR (Biacore), immobilized shFcRn, pH 6, steady-state fit; remark: listed apart in the source
[5] = target: T1, soluble human FcRn (shFcRn); assay: SPR (Biacore), immobilized shFcRn, pH 6

| Binder | Kd [1] | Kd [2] | Kd Ratio 7.4/6.0 [3] | Kd [4] | binding result [5] |
| --- | --- | --- | --- | --- | --- |
| Ac-AGRYFCTKWKHGWCEEVGTG-NH2 (disulfide 6-14 (inferred)) [SYN1709] | 0.68 µM |  |  |  |  |
| Ac-VMHCFWDEEFKCDQG-NH2 (disulfide 4-12 (inferred)) [SYN1197] |  | 62 µM | 84 | 0.74 µM |  |
| Ac-VMACFWDEEFKCDQG-NH2 (disulfide 4-12 (inferred)) [SYN1215] |  |  |  | 2.84 µM |  |
| Ac-VMHCFWDEGFKCDQG-NH2 (disulfide 4-12 (inferred)) [SYN1257] |  | 40 µM |  | 1.45 µM |  |
| Ac-VMHCFWDEEFKCEQG-NH2 (disulfide 4-12 (inferred)) [SYN1258] |  | 24 µM | 65 | 0.37 µM |  |
| Ac-VMHCFWDEEFRCDYG-NH2 (disulfide 4-12 (inferred)) [SYN1381] |  | 4.9 µM | 82 | 0.06 µM |  |
| Ac-YMHCFWDEEFKCDQG-NH2 (disulfide 4-12 (inferred)) [SYN1256] |  | 50 µM | 69 | 0.72 µM |  |
| Ac-VMKCWWDEEMLCRAF-NH2 (disulfide 4-12 (inferred)) [SYN1532] |  | 17.3 µM | 112 | 0.154 µM |  |
| Ac-VMRCWWDEEMLCRAF-NH2 (disulfide 4-12 (inferred)) [SYN1534] |  | 20.2 µM | 125 | 0.162 µM |  |
| Ac-VMKCWWDEEMLCRAV-NH2 (disulfide 4-12 (inferred); not fully specified) [SYN1540B] |  |  |  | 0.702 µM |  |
| Ac-VMKCFWDEEMLCRAF-NH2 (disulfide 4-12 (inferred)) [SYN1535] |  | 91.3 µM | 35 | 2.6 µM |  |
| Ac-VMHCWWDEEMLCRAF-NH2 (disulfide 4-12 (inferred)) [SYN1533] |  | 59.1 µM | 106 | 0.558 µM |  |
| Ac-VMKCWWDEEMLCRYF-NH2 (disulfide 4-12 (inferred)) [SYN1539] |  | 8.6 µM | 83 | 0.104 µM |  |
| Ac-RYFCTKWAHGWCEEV-NH2 (disulfide 4-12 (inferred)) [SYN1548] | 9.3 µM |  |  |  |  |
| Ac-RYFCTKWKHAWCEEV-NH2 (disulfide 4-12 (inferred)) [SYN1550] | 39.4 µM |  |  |  |  |
| Ac-AGRYFCTKWKHGWCEEV-NH2 (disulfide 6-14 (inferred)) [SYN1712] | 4.62 µM |  |  |  |  |
| Ac-YMTCKADDGFSCEYV-NH2 (disulfide 4-12 (inferred)) [SYN1148] |  |  |  |  | no binding |
| Ac-YMTCKWDDGFSCAYV-NH2 (disulfide 4-12 (inferred)) [SYN1154] |  | 9.2 µM | 20 |  |  |

Further lines, results first:

| Kd [1] | Kd [2] | Kd Ratio 7.4/6.0 [3] | Kd [4] | binding result [5] | Binder |
| --- | --- | --- | --- | --- | --- |
| 1.56 µM |  |  |  |  | Ac-AGRYFCTKWKHGWCEEVG-NH2 (disulfide 6-14 (inferred)) [SYN1711] |
|  | 112 µM | 25 | 4.4 µM |  | Ac-VMHCFWDEAFRCDQG-NH2 (disulfide 4-12 (inferred)) [SYN1382] |
|  | 186 µM | 52 | 3.6 µM |  | Ac-VMHCFWDEAFKCDQG-NH2 (disulfide 4-12 (inferred)) [SYN1216] |
|  | 12 µM | 132 | 0.091 µM |  | Ac-VMHCFWDEEFKCDYG-NH2 (disulfide 4-12 (inferred)) [SYN1259] |
|  | 22 µM | 73 | 0.3 µM |  | Ac-VMHCFWDEEFKCDQV-NH2 (disulfide 4-12 (inferred)) [SYN1260] |
| 0.9 µM |  |  |  |  | Ac-RYFCTKWKHGWCEEVGTGGGK-NH2 (disulfide 4-12 (inferred)) [SYN1706] |
| 0.84 µM |  |  |  |  | Ac-GRYFCTKWKHGWCEEVGTGGGK-NH2 (disulfide 5-13 (inferred)) [SYN1705] |
|  | 44.4 µM | 99 | 0.45 µM and 0.3 µM |  | Ac-AGVMKCWWDEEMLCRAFGTGGGK-NH2 (disulfide 6-14 (inferred)) [SYN531] |
|  | 45.7 µM | 80 | 0.572 µM |  | Ac-VMKCWWDEEMLCRAV-NH2 (disulfide 4-12 (inferred); not fully specified) [SYN1540A] |
|  | 18.9 µM | 71 | 0.267 µM |  | Ac-VMKCWWDEEMLCEAF-NH2 (disulfide 4-12 (inferred)) [SYN1538] |
| 0.59 µM |  |  |  |  | Ac-AGRYFCTKWKHGWCEEVGT-NH2 (disulfide 6-14 (inferred)) [SYN1710] |
| 13.8 µM |  |  |  |  | Ac-AYFCTKWKHGWCEEV-NH2 (disulfide 4-12 (inferred)) [SYN1542] |
| 9.3 µM |  |  |  |  | Ac-RYFCAKWKHGWCEEV-NH2 (disulfide 4-12 (inferred)) [SYN1545] |
| 9.5 µM |  |  |  |  | Ac-RYFCTKWKHGWCEAV-NH2 (disulfide 4-12 (inferred)) [SYN1553] |
| 67.5 µM |  |  |  |  | Ac-RAFCTKWKHGWCEEV-NH2 (disulfide 4-12 (inferred)) [SYN1543] |
| 7.7 µM |  |  |  |  | Ac-RYACTKWKHGWCEEV-NH2 (disulfide 4-12 (inferred)) [SYN1544] |
| 14.2 µM |  |  |  |  | Ac-RYFCTAWKHGWCEEV-NH2 (disulfide 4-12 (inferred)) [SYN1546] |
| 27.4 µM |  |  |  |  | Ac-RYFCTKWKAGWCEEV-NH2 (disulfide 4-12 (inferred)) [SYN1549] |
|  | 29.1 µM | 23.3 | 1.25 µM |  | Ac-AMTCKWDDGFSCEYV-NH2 (disulfide 4-12 (inferred)) [SYN1144] |
|  | 17.3 µM | 9.8 | 1.76 µM |  | Ac-YMTCKWDDGFSCEAV-NH2 (disulfide 4-12 (inferred)) [SYN1155] |
|  | 12 µM | 7.8 | 1.54 µM |  | Ac-YMTCKWADGFSCEYV-NH2 (disulfide 4-12 (inferred)) [SYN1149] |
|  | 20.7 µM | 25 | 1.5 µM and 0.83 µM |  | Ac-YMTCKWDDAFSCEYV-NH2 (disulfide 4-12 (inferred)) [SYN1151] |
|  | 22 µM | 38 | 0.58 µM |  | Ac-YMTCKWDDGFSCEYA-NH2 (disulfide 4-12 (inferred)) [SYN1156] |
| 0.49 µM |  |  |  |  | Ac-AGRYFCTKWKHGWCEEVGTGGG-NH2 (disulfide 6-14 (inferred)) [SYN1707] |
|  |  |  | 1.21 µM and 1.17 µM |  | Ac-MTCKWDDGFSCEYV-NH2 (disulfide 3-11 (inferred)) [SYN1161] |
| 0.57 µM |  |  |  |  | Ac-AGRYFCTKWKHGWCEEVGTGG-NH2 (disulfide 6-14 (inferred)) [SYN1708] |
